Article PMC9482650, “Quantitative fragmentomics allow affinity mapping of interactomes” (Nature Communications, 2022)
Values belong to the binder of their own block, whether it stands above or below them.

What was measured:
Assay in all cases: holdup assay
Parameters in all cases: key: below the threshold = too weak to quantify, mostly under pKd 3.1 to 4
[1] = target: T1, PTPN13_1, Q12923
T1 sequence (Q12923 1088-1188, limits assumed, looked up): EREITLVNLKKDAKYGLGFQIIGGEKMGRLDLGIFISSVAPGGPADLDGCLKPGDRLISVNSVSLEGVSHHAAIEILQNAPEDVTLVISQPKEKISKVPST

[2] = target: T2, FRMPD1, Q5SYB0
T2 sequence (Q5SYB0 52-145, limits assumed, looked up): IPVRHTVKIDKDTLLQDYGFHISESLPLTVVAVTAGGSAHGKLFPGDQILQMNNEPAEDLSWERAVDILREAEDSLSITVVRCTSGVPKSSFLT

[3] = target: GORASP1, Q9BQQ3
GORASP1, Q9BQQ3, sequence (Q9BQQ3 1-208): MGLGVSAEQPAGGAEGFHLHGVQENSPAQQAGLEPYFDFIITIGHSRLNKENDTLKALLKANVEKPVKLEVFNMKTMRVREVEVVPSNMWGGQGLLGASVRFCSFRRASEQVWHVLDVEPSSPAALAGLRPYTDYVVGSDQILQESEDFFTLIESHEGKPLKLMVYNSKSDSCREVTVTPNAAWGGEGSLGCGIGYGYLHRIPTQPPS

[4] = target: Inadl_5, Q8NI35
Inadl_5, Q8NI35, sequence (Q8NI35 673-780): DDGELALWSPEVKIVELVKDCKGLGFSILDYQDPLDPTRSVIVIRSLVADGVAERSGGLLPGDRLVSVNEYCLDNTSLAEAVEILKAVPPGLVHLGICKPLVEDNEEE

[5] = target: T3, HTRA3, P83110
T3 sequence (P83110 354-453, limits assumed, looked up): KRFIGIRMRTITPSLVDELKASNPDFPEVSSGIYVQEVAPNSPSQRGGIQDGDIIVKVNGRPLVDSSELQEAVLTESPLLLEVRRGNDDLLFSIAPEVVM

[6] = target: T4, TJP3_3, O95049
T4 sequence (O95049 375-456, limits assumed, looked up): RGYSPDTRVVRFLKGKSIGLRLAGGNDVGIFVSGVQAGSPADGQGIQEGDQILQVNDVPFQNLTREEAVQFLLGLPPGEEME

[7] = target: ARHGEF12, Q9NZN5-2
ARHGEF12, Q9NZN5-2, sequence (Q9NZN5 other isoform, or with tags, fused parts or gaps): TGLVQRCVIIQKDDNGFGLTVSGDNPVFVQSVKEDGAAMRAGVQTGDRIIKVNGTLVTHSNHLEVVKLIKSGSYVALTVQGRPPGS

[8] = target: T5, DVL3, Q92997
T5 sequence (Q92997 244-331, limits assumed, looked up): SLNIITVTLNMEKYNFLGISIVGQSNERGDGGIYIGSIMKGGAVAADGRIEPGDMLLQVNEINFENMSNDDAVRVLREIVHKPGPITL

[9] = target: T6, APBA3_1, O96018
T6 sequence (O96018 389-490, limits assumed, looked up): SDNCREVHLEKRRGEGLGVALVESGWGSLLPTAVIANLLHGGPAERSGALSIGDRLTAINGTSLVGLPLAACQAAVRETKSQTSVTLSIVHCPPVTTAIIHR

[10] = target: FRMPD2_1, Q68DX3
FRMPD2_1, Q68DX3, sequence (Q68DX3 770-861): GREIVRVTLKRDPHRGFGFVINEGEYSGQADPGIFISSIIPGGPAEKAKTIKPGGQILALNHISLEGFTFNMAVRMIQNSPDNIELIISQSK

[11] = target: PDZRN4_1, Q6ZMN7
PDZRN4_1, Q6ZMN7, sequence (Q6ZMN7 213-318): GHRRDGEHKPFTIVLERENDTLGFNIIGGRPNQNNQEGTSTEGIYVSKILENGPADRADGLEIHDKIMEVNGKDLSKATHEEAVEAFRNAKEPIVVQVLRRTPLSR

[12] = target: FRMPD3, Q5JV73
FRMPD3, Q5JV73, sequence (Q5JV73 12-100): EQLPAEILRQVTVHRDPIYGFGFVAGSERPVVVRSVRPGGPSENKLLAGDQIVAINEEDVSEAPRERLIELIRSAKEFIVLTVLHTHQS

[13] = target: T7, SNTA1, Q13424
T7 sequence (Q13424 82-180, limits assumed, looked up): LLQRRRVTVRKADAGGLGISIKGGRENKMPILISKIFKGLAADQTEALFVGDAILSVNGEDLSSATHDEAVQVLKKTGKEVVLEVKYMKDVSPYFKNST

[14] = target: Inadl_4, Q8NI35
Inadl_4, Q8NI35, sequence (Q8NI35 547-651): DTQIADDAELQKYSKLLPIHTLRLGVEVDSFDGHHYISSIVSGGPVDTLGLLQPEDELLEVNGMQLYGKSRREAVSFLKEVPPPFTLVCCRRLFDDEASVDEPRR

[15] = target: DLG2_3, Q15700
[16] = target: MAGI2_4, Q86UL8
MAGI2_4, Q86UL8, sequence (Q86UL8 772-865): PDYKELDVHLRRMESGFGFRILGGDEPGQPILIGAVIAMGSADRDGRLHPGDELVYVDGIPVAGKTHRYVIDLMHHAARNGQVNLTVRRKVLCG

[17] = target: T8, SNTG2, Q9NY99
T8 sequence (Q9NY99 68-166, limits assumed, looked up): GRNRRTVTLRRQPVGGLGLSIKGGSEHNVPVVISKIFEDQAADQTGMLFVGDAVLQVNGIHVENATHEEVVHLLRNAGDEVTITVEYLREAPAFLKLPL

[18] = target: FRMPD2_2, Q68DX3
FRMPD2_2, Q68DX3, sequence (Q68DX3 944-1038): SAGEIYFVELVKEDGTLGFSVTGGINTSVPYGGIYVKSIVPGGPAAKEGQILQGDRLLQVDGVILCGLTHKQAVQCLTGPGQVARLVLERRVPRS

[19] = target: T9, LIN7C, Q9NUP9
T9 sequence (Q9NUP9 88-185, limits assumed, looked up): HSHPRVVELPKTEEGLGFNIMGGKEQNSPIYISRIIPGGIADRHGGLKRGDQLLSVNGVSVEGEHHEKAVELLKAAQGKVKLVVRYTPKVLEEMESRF

[20] = target: PTPN3, P26045
PTPN3, P26045, sequence (P26045 505-587): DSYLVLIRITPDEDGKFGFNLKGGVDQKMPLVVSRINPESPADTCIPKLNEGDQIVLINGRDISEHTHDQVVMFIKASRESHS

[21] = target: T10, TX1BP3, O14907
T10 sequence (O14907 10-122, limits assumed, looked up): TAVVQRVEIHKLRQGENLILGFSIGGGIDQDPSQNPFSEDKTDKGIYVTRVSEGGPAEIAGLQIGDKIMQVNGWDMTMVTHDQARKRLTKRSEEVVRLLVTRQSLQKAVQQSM

[22] = target: GRIP2_3, Q9C0E4
GRIP2_3, Q9C0E4, sequence (Q9C0E4 238-339): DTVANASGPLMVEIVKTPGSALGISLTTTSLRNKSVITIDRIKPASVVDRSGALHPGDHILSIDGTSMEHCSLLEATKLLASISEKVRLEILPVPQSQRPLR

[23] = target: MAST1, Q9Y2H9
MAST1, Q9Y2H9, sequence (Q9Y2H9 962-1065): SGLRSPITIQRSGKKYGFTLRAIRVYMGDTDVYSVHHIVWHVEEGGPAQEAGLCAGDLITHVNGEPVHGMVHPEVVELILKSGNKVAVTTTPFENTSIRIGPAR

[24] = target: T11, RHPN1, Q8TCX5
T11 sequence (Q8TCX5 508-602, limits assumed, looked up): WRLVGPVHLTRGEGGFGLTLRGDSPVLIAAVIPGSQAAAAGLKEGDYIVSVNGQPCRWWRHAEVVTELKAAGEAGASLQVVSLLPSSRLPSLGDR

[25] = target: T12, PDZD7_3, Q9H5P4
T12 sequence (Q9H5P4 857-944, limits assumed, looked up): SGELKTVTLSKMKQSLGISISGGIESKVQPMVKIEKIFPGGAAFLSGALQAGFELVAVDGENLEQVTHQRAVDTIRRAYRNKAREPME

[26] = plain residues with an end cap or a label only (N-terminal biotin on a linker: ado-ado)
[27] = modified: acetyl on K at position -1 from the C-terminal residue

pKd [1, 26]: below the threshold
pKd [2, 26]: below the threshold
pKd [3, 26]: below the threshold
pKd [4, 26]: below the threshold
pKd [5, 26]: below the threshold
pKd [6, 26]: below the threshold
pKd [7, 26]: below the threshold
pKd [8, 26]: below the threshold
pKd [9, 26]: below the threshold
pKd [10, 26]: below the threshold
pKd [11, 26]: below the threshold
pKd [12, 26]: below the threshold
pKd [13, 26]: 3.9
pKd [14, 26]: below the threshold
pKd [15, 26]: below the threshold
pKd [16, 26]: below the threshold
pKd [17, 26]: below the threshold
pKd [18, 26]: below the threshold
pKd [19, 26]: below the threshold
pKd [20, 26]: 3.78
pKd [21, 26]: below the threshold
pKd [22, 26]: below the threshold
pKd [23, 26]: 3.92
pKd [24, 26]: below the threshold
pKd [25, 26]: below the threshold
B1: PTH2R, P49190 (peptide)
chain: GCQGETEDVL

pKd [1, 27]: below the threshold
pKd [2, 27]: below the threshold
pKd [3, 27]: 4.04
pKd [4, 27]: below the threshold
pKd [5, 27]: below the threshold
pKd [6, 27]: below the threshold
pKd [7, 27]: 4.47
pKd [8, 27]: below the threshold
pKd [9, 27]: below the threshold
pKd [10, 27]: below the threshold
pKd [11, 27]: below the threshold
pKd [12, 27]: below the threshold
pKd [13, 27]: 4.71
pKd [14, 27]: below the threshold
pKd [15, 27]: below the threshold
pKd [16, 27]: 3.87
pKd [17, 27]: 3.78
pKd [18, 27]: 4.58
pKd [19, 27]: below the threshold
pKd [20, 27]: 4.2
pKd [21, 27]: 3.74
pKd [22, 27]: below the threshold
pKd [23, 27]: 4.66
pKd [24, 27]: 4.65
pKd [25, 27]: 5.82
B2: PTEN_Ac, P60484 (peptide)
chain: DEDQHTQITKV

pKd [1, 26]: below the threshold
pKd [2, 26]: below the threshold
pKd [3, 26]: 4.72
pKd [4, 26]: 3.87
pKd [5, 26]: 3.92
pKd [6, 26]: below the threshold
pKd [7, 26]: 4.47
pKd [8, 26]: 3.65
pKd [9, 26]: below the threshold
pKd [10, 26]: 3.56
pKd [11, 26]: below the threshold
pKd [12, 26]: below the threshold
pKd [13, 26]: 4.61
pKd [14, 26]: below the threshold
pKd [15, 26]: below the threshold
pKd [16, 26]: 4.53
pKd [17, 26]: 4.1
pKd [18, 26]: 4.29
pKd [19, 26]: below the threshold
pKd [20, 26]: 3.75
pKd [21, 26]: below the threshold
pKd [22, 26]: below the threshold
pKd [23, 26]: 4.74
pKd [24, 26]: 4.85
pKd [25, 26]: 5.23
B3: TTC24, A2A3L6 (peptide)
chain: PMESGICTIV
